The source of these data is publication PMC8592984 (2021).

Some targets named below: Tau 441 P301S (human, UniProt P10636-8 1-441, P301S); Tau 410 P216A (human, UniProt P10636-5 1-410, P216A); Tau 410 P179A (human, UniProt P10636-5 1-410, P179A); Tau 410 P179A/P216A (human, UniProt P10636-5 1-410, P179A | P216A).
Holding throughout (experiment): SPR
In assay [1] the target is T1, human Tau 441 full-length protein (4R tau), SPR construct (human, UniProt P10636-8 1-441).
In assay [2] the target is T1, human Tau 441 full-length protein (4R …). This is another data set of the same source.
Assay [3] concerns the target human Tau 410 full-length protein (3R tau), SPR construct (human, UniProt P10636-5 1-410).

Like-named read-outs stand apart in the source and are kept apart here.

T1 sequence (P10636 other isoform, or with tags, fused parts or gaps): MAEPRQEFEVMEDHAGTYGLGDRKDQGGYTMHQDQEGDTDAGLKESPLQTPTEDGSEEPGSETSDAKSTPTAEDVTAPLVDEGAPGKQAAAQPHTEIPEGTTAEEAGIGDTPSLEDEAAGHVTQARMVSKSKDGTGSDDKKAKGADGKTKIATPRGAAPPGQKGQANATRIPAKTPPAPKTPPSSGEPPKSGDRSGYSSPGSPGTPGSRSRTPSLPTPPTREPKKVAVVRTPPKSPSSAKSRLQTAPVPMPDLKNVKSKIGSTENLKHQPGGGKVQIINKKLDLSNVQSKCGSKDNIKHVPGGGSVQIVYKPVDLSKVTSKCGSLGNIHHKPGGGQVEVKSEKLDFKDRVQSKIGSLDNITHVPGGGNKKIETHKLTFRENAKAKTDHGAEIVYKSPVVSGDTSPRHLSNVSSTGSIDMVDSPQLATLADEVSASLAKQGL
Sequence of human Tau 410 full-length protein (3R tau), SPR construct (P10636 other isoform, or with tags, fused parts or gaps): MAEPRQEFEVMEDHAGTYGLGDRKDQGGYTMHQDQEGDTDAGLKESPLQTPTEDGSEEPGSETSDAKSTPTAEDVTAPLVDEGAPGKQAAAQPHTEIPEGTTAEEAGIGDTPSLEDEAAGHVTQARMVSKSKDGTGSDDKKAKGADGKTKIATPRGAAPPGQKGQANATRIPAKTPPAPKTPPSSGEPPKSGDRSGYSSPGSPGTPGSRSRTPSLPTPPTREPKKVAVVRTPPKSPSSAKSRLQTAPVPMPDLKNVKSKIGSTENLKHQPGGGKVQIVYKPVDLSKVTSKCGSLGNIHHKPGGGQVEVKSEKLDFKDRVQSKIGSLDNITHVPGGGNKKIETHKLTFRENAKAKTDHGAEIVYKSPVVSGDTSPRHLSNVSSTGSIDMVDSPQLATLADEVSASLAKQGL
Sequence of Tau 410 P179A (P10636 other isoform, or with tags, fused parts or gaps P179A | P179A): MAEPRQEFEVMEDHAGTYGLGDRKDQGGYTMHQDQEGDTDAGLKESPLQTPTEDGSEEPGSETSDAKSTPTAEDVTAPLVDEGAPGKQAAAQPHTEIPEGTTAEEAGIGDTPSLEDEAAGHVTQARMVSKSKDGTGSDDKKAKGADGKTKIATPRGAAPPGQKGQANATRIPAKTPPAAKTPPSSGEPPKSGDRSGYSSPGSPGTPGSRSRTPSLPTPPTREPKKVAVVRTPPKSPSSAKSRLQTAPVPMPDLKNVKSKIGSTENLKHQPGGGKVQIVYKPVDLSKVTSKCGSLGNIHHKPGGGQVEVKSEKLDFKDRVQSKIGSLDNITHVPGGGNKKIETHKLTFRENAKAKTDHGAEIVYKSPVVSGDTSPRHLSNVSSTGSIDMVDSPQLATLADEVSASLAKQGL
Sequence of Tau 441 P301S (P10636 other isoform, or with tags, fused parts or gaps P301S | P301S): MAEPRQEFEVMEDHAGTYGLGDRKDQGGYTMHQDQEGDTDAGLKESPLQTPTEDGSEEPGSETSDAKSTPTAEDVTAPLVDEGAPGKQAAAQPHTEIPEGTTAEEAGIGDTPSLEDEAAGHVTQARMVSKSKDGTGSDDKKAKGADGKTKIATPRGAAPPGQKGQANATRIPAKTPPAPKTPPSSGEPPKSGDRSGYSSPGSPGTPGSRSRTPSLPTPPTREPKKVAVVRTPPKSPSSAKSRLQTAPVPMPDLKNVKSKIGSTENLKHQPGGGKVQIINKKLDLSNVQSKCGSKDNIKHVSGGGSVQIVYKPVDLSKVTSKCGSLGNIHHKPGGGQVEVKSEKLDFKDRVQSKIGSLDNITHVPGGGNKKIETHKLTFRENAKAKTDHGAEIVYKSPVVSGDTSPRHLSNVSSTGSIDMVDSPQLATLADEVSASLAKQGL
Sequence of Tau 410 P216A (P10636 other isoform, or with tags, fused parts or gaps P216A | P216A): as the sequence (P10636 other isoform, or with tags, fused parts or gaps P179A | P179A) above, with A179P, P216A counted along it
Sequence of Tau 410 P179A/P216A (P10636 other isoform, or with tags, fused parts or gaps P179A | P216A | P179A P216A): as the sequence (P10636 other isoform, or with tags, fused parts or gaps P179A | P179A) above, with P216A counted along it

B1: human PQBP1 full-length form (PQBP1-FL) (natural protein)
chain: MPLPVALQTRLAKRGILKHLEPEPEEEIIAEDYDDDPVDYEATRLEGLPPSWYKVFDPSCGLPYYWNADTDLVSWLSPHDPNSVVTKSAKKLRSSNADAEEKLDRSHDKSDRGHDKSDRSHEKLDRGHDKSDRGHDKSDRDRERGYDKVDRERERDRERDRDRGYDKADREEGKERRHHRREELAPYPKSKKAVSRKDEELDPMDPSSYSDAPRGTWSTGLPKRNEAKTGADTTAAGPLFQQRPYPSPGAVLRANAEASRTKQQD
The Kd is the free concentration of one partner at which half of the binding sites on the other are occupied at equilibrium, for simple one-to-one binding. A low value points to higher affinity. On to B1, for which the Kd came out at 51.5 nM in the assay with Tau 441 P301S; 42.1 nM in assay [1]; 314 nM with Tau 410 P216A; 4.82 µM in the assay with Tau 410 P179A; 12.2 nM in assay [2]; 26 µM in the assay with Tau 410 P179A/P216A. Binding in assay [3] was put at a Kd of 43.3 nM.

B2: human PQBP1(1–94) including WWD (domain or fragment)
chain: MPLPVALQTRLAKRGILKHLEPEPEEEIIAEDYDDDPVDYEATRLEGLPPSWYKVFDPSCGLPYYWNADTDLVSWLSPHDPNSVVTKSAKKLRS
For B2, the Kd with Tau 441 P301S worked out at 46.2 nM; in assay [1] it was 54.7 nM; with Tau 410 P216A, 445 nM; with Tau 410 P179A, 6.34 µM; in assay [2], 11 nM; in the assay with Tau 410 P179A/P216A it was 73.3 µM. This molecule also came in with a Kd in assay [3] of 76.9 nM.
